Laboratory results: article PMC6743362

Target: microtubules (MT fraction from mouse brain) (mouse (endogenous in mouse brain)) (UniProt P68369)
Test: co-sedimentation

In the case of “recombinant human tau lacking the MT-binding domain (tau ΔMTBD) (from UniProt P10636-6 1-383) (natural protein)”, the MT-bound fraction is reported as 0.619 and the MT-unbound fraction is reported as 0.381.
